System: tumor target cells that constitutively express a fluorescent reporter (mKate)
Assay: Serial killing screen of IL15 formats and combinations with IL21 or IL7
Assay type: cell-based
Procedure: 6 to 7 days after transduction, NK cells were collected, counted and seeded in a co-culture with tumor target cells that constitutively express a fluorescent reporter (mKate) at the appropriate effector to target (E:T) ratios. Tumor target cell growth (area) was quantified using an imaging-based system (Incucyte, Sartorius). After 48 to 72 hours of co-culture, new target cells were plated, and the NK cells were collected from the original plates and transferred to newly seeded targets for a 2nd or 3rd tumor re-challenge (serial killing). Target cell area was quantified and compared across different conditions. […] Similar serial target cell killing is shown at a different E:T ratio in FIG. 60E.
Additionally, various constructions of a chimeric protein containing IL15 tethered to the IL15 receptor (FIG. 61A) was tested.

B1: IL7 with crIL15: CAR-NK cells co-expressing IL7 (SEQ ID NO: 394) with crIL15 (protein, UniProt P13232 26-177, looked up)
Interleukin-7: DCDIEGKDGKQYESVLMVSIDQLLDSMKEIGSNCLNNEFNFFKRHICDANKEGMFLFRAARKLRQFLKMNSTGDFDLHLLKVSEGTTILLNCTGQVKGRKPAALGEAQPTKSLEENKSLKEQKKLNDLCFLKRLLQEIKTCWNKILMGTKEH
  serial target cell killing: no improvement in serial target cell killing

Source: patent US20260144818A1, “ARMED CHIMERIC RECEPTORS AND METHODS OF USE THEREOF” (Senti Biosciences, Inc., priority 2022, published 2026)
